Data on one molecule can be found in PMC2720063 (Biochemistry, 2009).

This assay addresses T1, Ror2(518–525) peptide (human).
T1 chain: REEFRHEA
Kind of assay: crystal structure.

B1: PFA1 Fab (Fab fragment of the monoclonal anti-Aβ antibody PFA1, Protofibril antibody 1) (Fab, V domains shown)
VH: QVTLKESGPGILKPSQTLSLTCSFSGFSLSTSGMGVGWIRQPSGKGLEWLAHIWWDDDRSYNPSLKSQLTISKDAARNQVFLRITSVDTADTATYYCVRRAHTTVLGDWFAYWGQGTLVTVSA
VL: DVLMTQTPLSLPVSLGDQASISCRSSQSIVHSNGNTYLEWYLQKPGQSPKLLIYKVSNRFSGVPDRFSGSGSGTDFTLKISRVEAEDLGVYYCFQGSHVPLTFGAGTKLELK
For B1, the binding result is “binds”.
